No end group written: not given here. *: point of attachment. FITC = O=C1OC2(c3ccc(O)cc3Oc3cc(O)ccc32)c2ccc(NC(=S)*)cc21

In series [1] the target is T1, eIF4GI557-1599;eIF4A (human;human?, UniProt Q04637;P60842 557-1599;1-406, |). Nature of the series: fluorescence anisotropy; mRNA pre-bound by eIF4E•4E-BP1; 20 mM HEPES-KOH pH 7.5, 200 mM KCl, 1 mM MgCl2, 25 °C; 10 nM labeled mRNA; pre-assembly with 0.5 uM eIF4E and 1 uM 4E-BP1. Conditions: protein: recombinant;recombinant, tags: N-terminal 6xHis, TEV-cleaved;N-terminal His-MBP, copies: 1;1, label: 3' fluorescein; for Kd: structured 5'UTR.

In series [2] the target is T2, eIF4GI557-1599 (human, UniProt Q04637 557-1599). The description is as above. Conditions: protein: recombinant; tags: N-terminal 6xHis, TEV-cleaved; label: 3' fluorescein; structured 5'UTR.
The target of series [3] is T1, eIF4GI557-1599;eIF4A. Nature of the series: fluorescence anisotropy; ATP; mRNA pre-bound by eIF4E•4E-BP1; 20 mM HEPES-KOH pH 7.5, 200 mM KCl, 1 mM MgCl2, 25 °C; 10 nM labeled mRNA; pre-assembly with 0.5 uM eIF4E and 1 uM 4E-BP1. Particulars: protein: recombinant;recombinant, tags: N-terminal 6xHis, TEV-cleaved;N-terminal His-MBP, copies: 1;1, label: 3' fluorescein, structured 5'UTR. (In general: Polarisation of emitted light reports the rotation of a fluorescent probe.)

Series [4] deals with eIF4E;4E-BP1 (human;human, UniProt P06730;Q13541 1-217;1-118, |). Description: fluorescence anisotropy; 20 mM HEPES-KOH pH 7.5, 200 mM KCl, 1 mM MgCl2, 25 °C; 10 nM labeled mRNA; pre-assembly with 0.5 uM eIF4E and 1 uM 4E-BP1. Conditions: protein: recombinant;recombinant, tags: N-terminal polyHis, TEV-cleaved;N-terminal 6xHis, copies: 1;1, label: 3' fluorescein.
The target of series [5] is eIF4E (human, UniProt P06730 1-217). The description is as above. Particulars: protein: recombinant, tags: N-terminal polyHis, TEV-cleaved, label: 3' fluorescein.
The target in series [6] is 4E-BP1 (human, UniProt Q13541 1-118). Described as above. Particulars: protein: recombinant, tags: N-terminal 6xHis, TEV-cleaved, label: 3' fluorescein.
Series [7] has as its target T2, eIF4GI557-1599. Described as above. Conditions: protein: recombinant, tags: N-terminal 6xHis, TEV-cleaved, label: 3' fluorescein; for Kd: structured 5'UTR.
Series [8] addresses T2, eIF4GI557-1599. Nature of the series: fluorescence anisotropy; mRNA pre-bound by eIF4E•FITC-4E-BP1 peptide (label on peptide); 20 mM HEPES-KOH pH 7.5, 200 mM KCl, 1 mM MgCl2, 25 °C; 10 nM labeled mRNA; pre-assembly with 0.5 uM eIF4E and 1 uM 4E-BP1. Conditions: protein: recombinant; tags: N-terminal 6xHis, TEV-cleaved; label: 3' fluorescein; structured 5'UTR.
For series [9], the target named is T1, eIF4GI557-1599;eIF4A. Description: fluorescence anisotropy; mRNA pre-bound by eIF4E•4E-BP1; text gives error 1.0; 20 mM HEPES-KOH pH 7.5, 200 mM KCl, 1 mM MgCl2, 25 °C; 10 nM labeled mRNA; pre-assembly with 0.5 uM eIF4E and 1 uM 4E-BP1. Particulars: protein: recombinant;recombinant, tags: N-terminal 6xHis, TEV-cleaved;N-terminal His-MBP, copies: 1;1, label: 3' fluorescein, structured 5'UTR.

The target of series [10] is T1, eIF4GI557-1599;eIF4A. Nature of the series: fluorescence anisotropy; ATP; mRNA pre-bound by eIF4E•4E-BP1; text gives error 1.5; 20 mM HEPES-KOH pH 7.5, 200 mM KCl, 1 mM MgCl2, 25 °C; 10 nM labeled mRNA; pre-assembly with 0.5 uM eIF4E and 1 uM 4E-BP1. Conditions: protein: recombinant;recombinant, tags: N-terminal 6xHis, TEV-cleaved;N-terminal His-MBP, copies: 1;1, label: 3' fluorescein, structured 5'UTR.

Series [11] concerns the target eukaryotic initiation factor 4E (eIF4E) (human, UniProt P06730 1-217). Description: fluorescence polarisation; fluorescence anisotropy; 20 nM FITC-labelled 4E-BP1 peptide, free or preincubated with 10 nM eIF4E for 20 min at 25 °C, titrated with protein (eIF4E: 200 ul of 20 nM peptide with 2.5 uM eIF4E); no mRNA; Hill-equation fit. Conditions: both partners purified.
Series [12] deals with T2, eIF4GI557-1599. Description: fluorescence anisotropy; text gives error 3.1; 20 mM HEPES-KOH pH 7.5, 200 mM KCl, 1 mM MgCl2, 25 °C; 10 nM labeled mRNA; pre-assembly with 0.5 uM eIF4E and 1 uM 4E-BP1. Particulars: protein: recombinant; tags: N-terminal 6xHis, TEV-cleaved; label: 3' fluorescein; structured 5'UTR.
Series [13] concerns the target T2, eIF4GI557-1599. Description: fluorescence anisotropy; mRNA pre-bound by eIF4E•FITC-4E-BP1 peptide (label on peptide); text gives error 1.5; 20 mM HEPES-KOH pH 7.5, 200 mM KCl, 1 mM MgCl2, 25 °C; 10 nM labeled mRNA; pre-assembly with 0.5 uM eIF4E and 1 uM 4E-BP1. Particulars: protein: recombinant; tags: N-terminal 6xHis, TEV-cleaved; label: 3' fluorescein; structured 5'UTR.

Sequence of 4E-BP1 (Q13541 whole entry): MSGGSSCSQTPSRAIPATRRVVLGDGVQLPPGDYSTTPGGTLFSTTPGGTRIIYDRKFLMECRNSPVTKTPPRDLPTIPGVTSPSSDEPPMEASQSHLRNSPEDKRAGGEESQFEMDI
Sequence of eIF4E;4E-BP1 (P06730 whole entry, chain 1 of 2): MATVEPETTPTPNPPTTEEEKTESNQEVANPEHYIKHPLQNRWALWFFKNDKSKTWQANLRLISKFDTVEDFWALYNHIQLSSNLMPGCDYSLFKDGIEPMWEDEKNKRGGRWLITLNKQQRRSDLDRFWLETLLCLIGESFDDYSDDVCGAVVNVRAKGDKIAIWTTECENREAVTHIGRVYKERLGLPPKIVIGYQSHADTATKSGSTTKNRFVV
Sequence of eIF4E;4E-BP1 (Q13541 whole entry, chain 2 of 2): as the sequence (Q13541 whole entry) above
Sequence of eIF4E (P06730 whole entry): as the sequence (P06730 whole entry, chain 1 of 2) above
T2 sequence (Q04637 557-1599): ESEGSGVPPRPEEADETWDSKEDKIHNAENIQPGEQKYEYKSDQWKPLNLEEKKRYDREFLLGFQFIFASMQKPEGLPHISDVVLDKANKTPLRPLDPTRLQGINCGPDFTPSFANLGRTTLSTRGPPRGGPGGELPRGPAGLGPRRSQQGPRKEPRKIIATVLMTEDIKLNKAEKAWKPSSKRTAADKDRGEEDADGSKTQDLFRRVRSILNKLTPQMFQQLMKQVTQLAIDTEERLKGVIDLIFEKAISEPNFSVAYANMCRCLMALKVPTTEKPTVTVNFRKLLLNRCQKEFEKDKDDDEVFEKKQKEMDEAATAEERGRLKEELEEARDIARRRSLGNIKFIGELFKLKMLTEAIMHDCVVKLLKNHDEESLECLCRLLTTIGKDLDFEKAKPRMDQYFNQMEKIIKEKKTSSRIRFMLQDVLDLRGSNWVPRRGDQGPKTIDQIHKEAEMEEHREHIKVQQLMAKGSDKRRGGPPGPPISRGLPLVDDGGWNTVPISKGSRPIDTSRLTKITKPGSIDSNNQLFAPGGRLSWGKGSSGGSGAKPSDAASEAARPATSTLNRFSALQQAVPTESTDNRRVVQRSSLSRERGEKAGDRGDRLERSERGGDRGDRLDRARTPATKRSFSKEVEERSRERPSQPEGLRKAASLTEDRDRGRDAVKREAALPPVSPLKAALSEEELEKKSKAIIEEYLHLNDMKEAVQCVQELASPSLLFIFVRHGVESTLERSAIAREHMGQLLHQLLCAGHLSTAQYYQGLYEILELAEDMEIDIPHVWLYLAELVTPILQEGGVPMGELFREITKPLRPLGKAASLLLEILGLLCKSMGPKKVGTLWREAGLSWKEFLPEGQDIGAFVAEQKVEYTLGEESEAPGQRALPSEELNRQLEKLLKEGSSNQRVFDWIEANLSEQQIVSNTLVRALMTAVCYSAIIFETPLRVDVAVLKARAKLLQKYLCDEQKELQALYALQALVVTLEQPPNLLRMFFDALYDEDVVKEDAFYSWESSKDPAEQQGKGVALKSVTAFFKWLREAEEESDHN
T1 sequence (Q04637 557-1599, chain 1 of 2): as the sequence (Q04637 557-1599) above
T1 sequence (P60842 whole entry, chain 2 of 2): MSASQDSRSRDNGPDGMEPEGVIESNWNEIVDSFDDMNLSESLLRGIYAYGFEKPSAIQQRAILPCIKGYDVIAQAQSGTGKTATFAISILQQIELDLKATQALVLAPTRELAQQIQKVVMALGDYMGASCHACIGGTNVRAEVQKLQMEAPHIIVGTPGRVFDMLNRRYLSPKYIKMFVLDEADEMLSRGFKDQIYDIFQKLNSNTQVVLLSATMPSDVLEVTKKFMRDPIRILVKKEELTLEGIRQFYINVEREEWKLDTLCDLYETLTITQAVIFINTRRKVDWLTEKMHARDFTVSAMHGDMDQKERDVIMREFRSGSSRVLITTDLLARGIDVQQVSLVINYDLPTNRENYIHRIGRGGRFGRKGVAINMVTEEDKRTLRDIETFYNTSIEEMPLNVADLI
Sequence of eukaryotic initiation factor 4E (eIF4E) (P06730 whole entry): as the sequence (P06730 whole entry, chain 1 of 2) above

B1: m7G FGF-9 5'UTR (structured_RNA)
RNA: GAAACAGCAGAUUACUUUUAUUUAUGCAUUUAAUGGAUUGAAGAAAAGAACCUUUUUUUUUCUCUCUCUCUCUGCAACUGCAGUAAGGGAGGGGAGUUGGAUAUACCUCGCCUAAUAUCUCCUGGGUUGACACCAUCAUUAUUGUUUAUUCUUGUGCUCCAAAAGCCGAGUCCUCUG
modifications: 5' m7G cap
Turning to B1, the dissociation constant (Kd) in series [1] turned out to be 23 ± 1.3 nM; in series [2], 24 ± 0.9 nM; in series [3], 24 ± 1.5 nM; in series [4] (structured 5'UTR), 32 ± 3.9 nM; in series [5] (structured 5'UTR), 72 ± 1.6 nM; in series [7], 20 ± 2 nM. Moreover, the Kd in [8] came to 32 ± 0.3 nM. For the same molecule, the binding result in [6] (structured 5'UTR) is listed as “no binding”.

B2: ApppG FGF-9 5'UTR (structured_RNA)
RNA: GAAACAGCAGAUUACUUUUAUUUAUGCAUUUAAUGGAUUGAAGAAAAGAACCUUUUUUUUUCUCUCUCUCUCUGCAACUGCAGUAAGGGAGGGGAGUUGGAUAUACCUCGCCUAAUAUCUCCUGGGUUGACACCAUCAUUAUUGUUUAUUCUUGUGCUCCAAAAGCCGAGUCCUCUG
modifications: 5' ApppG cap (non-functional)
B2: the Kd in [2] was found to be 13 ± 0.6 nM; in [3], 18 ± 1 nM; in [4] (structured 5'UTR), 87 ± 2 nM; in series [5] (structured 5'UTR), 138 ± 4.6 nM; in [7], 28 ± 0.7 nM; in series [8], 25 ± 1 nM. Also, the Kd in [9] turned out to be 15 ± 0.3 nM. In series [6] (structured 5'UTR), the binding result is listed as “no binding”.

B3: m7G p53B 5'UTR (structured_RNA)
RNA: AUGGAGGAGCCGCAGUCAGAUCCUAGCGUCGAGCCCCCUCUGAGUCAGGAAACAUUUUCAGACCUAUGGAAACUACUUCCUGAAAACAACGUUCUGUCCCCCUUGCCGUCCCAAGCA
modifications: 5' m7G cap
Take B3: the Kd in series [1] was determined as 21 ± 2.2 nM; in [2], 18 ± 0.3 nM; in [3], 22 ± 1.1 nM; in [4] (structured 5'UTR), 28 ± 2.3 nM; in series [5] (structured 5'UTR), 54 ± 2.3 nM; in [7] it was 18 ± 3.1 nM. In addition, the Kd in series [8] came to 47 ± 0.7 nM. For the same molecule, the binding result in [6] (structured 5'UTR) is given as “no binding”.

B4: m7G beta-actin 5'UTR (structured_RNA)
RNA: GGACCGCCGAGACCGCGUCCGCCCCGCGAGCACAGAGCCUCGCCUUUGCCGAUCCGCCGCCCGCCACACCCGCCGCCAGCUCAC
modifications: 5' m7G cap
Take B4: the binding result in [1] (unstructured control), in series [6] (unstructured control) and in series [7] (unstructured control) was “no binding” throughout. Also, the Kd in [4] (unstructured control) amounted to 12 ± 0.6 nM; in series [5] (unstructured control), 28 ± 1.8 nM.

B5: m7G HIF-1alpha 5'UTR (structured_RNA)
RNA: AGUGCACAGUGCUGCCUCGUCUGAGGGGACAGGAGGAUCACCCUCUUCGUCGCUUCGGCCAGUGGUCGGGCUGGGCCCUGACAAGCCACCUGAGGAGAGGCUCGGAGCCGGGCCCGGACCCCGGCGAUUGCCGCCCGCUUCUCUCUAGUCUCACGAGGGGUUUCCCGCCUCGCACCCCCACCUCUGGACUUGCCUUUCCUUCUCUUCUCCGCGUGUGGAGGGAGCCAGCGCUUAGGCCGGAGCGAGCCUGGGGGCCGCCCGCCGUGAAGACAUCGCGGGGACCGAUUCACC
modifications: 5' m7G cap
B5: the Kd in series [1] was determined as 20 ± 1.3 nM; in [2], 15 ± 3.4 nM; in series [10] it was 21 ± 0.5 nM; in [4] (structured 5'UTR) it was 15 ± 3.4 nM; in [5] (structured 5'UTR), 56 ± 1.5 nM; in [7], 22 ± 0.5 nM. In addition, in series [8], the Kd came out at 21 ± 0.7 nM. Also, the binding result in [6] (structured 5'UTR) is “no binding”.

B6: ApppG HIF-1alpha 5'UTR (structured_RNA)
RNA: AGUGCACAGUGCUGCCUCGUCUGAGGGGACAGGAGGAUCACCCUCUUCGUCGCUUCGGCCAGUGGUCGGGCUGGGCCCUGACAAGCCACCUGAGGAGAGGCUCGGAGCCGGGCCCGGACCCCGGCGAUUGCCGCCCGCUUCUCUCUAGUCUCACGAGGGGUUUCCCGCCUCGCACCCCCACCUCUGGACUUGCCUUUCCUUCUCUUCUCCGCGUGUGGAGGGAGCCAGCGCUUAGGCCGGAGCGAGCCUGGGGGCCGCCCGCCGUGAAGACAUCGCGGGGACCGAUUCACC
modifications: 5' ApppG cap (non-functional)
As for B6, the dissociation constant Kd in series [1] is 19 ± 0.6 nM; in series [2], 25 ± 1.8 nM; in series [3], 24 ± 4.3 nM; in series [4] (structured 5'UTR) it was 52 ± 0.5 nM; in [5] (structured 5'UTR) it was 199 ± 1.5 nM; in series [7], 67 ± 1.8 nM. In addition, the Kd in [8] was determined as 30 ± 3.1 nM. In series [6] (structured 5'UTR), the binding result was “no binding”.

B7: fluorescein-labeled 4E-BP1 peptide (peptide)
peptide: PGGTRIIYDRK(FITC)FLMECRNSP
notes: also called FITC-4E-BP1 peptide; 4E-BP1-FITC-Peptide; source: synthetic peptide, bought: GenScript (>=98% purity)
In series [11], B7 had a Kd of 5 ± 3.7 nM.

B8: m7G p53A 5'UTR (structured_RNA)
RNA: UCUAGAGCCACCGUCCAGGGAGCAGGUAGCUGCUGGGCUCCGGGGACACUUUGCGUUCGGGCUGGGAGCGUGCUUUCCACGACGGUGACACGCUUCCCUGGAUUGGCAGCCAGACUGCCUUCCGGGUCACUGCC
modifications: 5' m7G cap
With B8, the dissociation constant (Kd) in series [1] turned out to be 33 ± 0.7 nM; in [2], 31 ± 5.9 nM; in series [3], 35 ± 1.3 nM; in [4] (structured 5'UTR) it was 13 ± 1.1 nM; in series [5] (structured 5'UTR), 59 ± 7.5 nM; in series [12], 44 ± 1 nM. Moreover, the Kd in series [8] was found to be 29 ± 1.3 nM. Besides, the binding result in series [6] (structured 5'UTR) was “no binding”.

B9: ApppG p53A 5'UTR (structured_RNA)
RNA: UCUAGAGCCACCGUCCAGGGAGCAGGUAGCUGCUGGGCUCCGGGGACACUUUGCGUUCGGGCUGGGAGCGUGCUUUCCACGACGGUGACACGCUUCCCUGGAUUGGCAGCCAGACUGCCUUCCGGGUCACUGCC
modifications: 5' ApppG cap (non-functional)
As to B9, the equilibrium dissociation constant (Kd) in [1] was 20 ± 2 nM; in series [2] it was 25 ± 1.1 nM; in [3], 16 ± 0.8 nM; in series [13], 35 ± 0.5 nM; in series [4] (structured 5'UTR) it was 45 ± 1.6 nM; in [5] (structured 5'UTR), 186 ± 0.8 nM. In series [7], the dissociation constant (Kd) is 81 ± 1.3 nM. Also, the binding result in [6] (structured 5'UTR) was “no binding”.

In general, Kd refers to a measure of binding affinity in units of concentration.

These data come from PMC12774752, “4E-BP1 differentially regulates translation of a subset of human mRNAs” (The Journal of Biological Chemistry, 2025).
